# Measurements as given in article PMC3430870 (Nature structural & molecular biology, 2011).
# Read-outs that look alike come from different tables or passages of the source.
# Assays:
# Test in all cases: SPR
# mouse Wnt3a [1] = molecular target: T1, mouse Wnt3a (mouse, UniProt P27467 19-352)
# mouse Wnt3a [2] = molecular target: T1, mouse Wnt3a; remark: listed apart in the source
# mouse Wnt3a [3] = molecular target: T1, mouse Wnt3a; remark: listed apart in the source
# mouse Wnt3a [4] = molecular target: T1, mouse Wnt3a; remark: listed apart in the source
# mouse Wnt3a [5] = molecular target: T1, mouse Wnt3a; remark: listed apart in the source
# T1 sequence (P27467 19-352): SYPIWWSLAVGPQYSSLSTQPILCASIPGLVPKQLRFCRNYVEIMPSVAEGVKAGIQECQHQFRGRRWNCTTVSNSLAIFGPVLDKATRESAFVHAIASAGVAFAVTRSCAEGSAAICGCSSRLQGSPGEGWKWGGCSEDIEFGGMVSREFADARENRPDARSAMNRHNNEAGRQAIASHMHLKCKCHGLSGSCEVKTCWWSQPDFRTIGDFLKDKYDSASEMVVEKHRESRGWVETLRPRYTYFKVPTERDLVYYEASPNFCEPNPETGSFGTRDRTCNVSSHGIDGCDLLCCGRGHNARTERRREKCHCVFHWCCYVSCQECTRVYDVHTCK
Kd (mouse Wnt3a [1]),Binder,further results
3.21 µM,"WIF-1_(WD-EGFs I-III) (human WIF-1 residues 35-274) (domain or fragment, UniProt Q9Y5W5 35-274, looked up) SLYLWIDAHQARVLIGFEEDILIVSEGKMAPFTHDFRKAQQRMPAIPVNIHSMNFTWQAAGQAEYFYEFLSLRSLDKGIMADPTVNVPLLGTVPHKASVVQVGFPCLGKQDGVAAFEVDVIVMNSEGNTILKTPQNAIFFKTCQQAECPGGCRNGGFCNERRICECPDGFHGPHCEKALCTPRCMNGGLCVTPGFCICPPGFYGVNCDKANCSTTCFNGGTCFYPGKCICPPGLEGEQCE",
0.217 µM,"WIF-1ΔC Met77Trp (domain or fragment, human, UniProt Q9Y5W5 35-346, looked up) SLYLWIDAHQARVLIGFEEDILIVSEGKMAPFTHDFRKAQQRWPAIPVNIHSMNFTWQAAGQAEYFYEFLSLRSLDKGIMADPTVNVPLLGTVPHKASVVQVGFPCLGKQDGVAAFEVDVIVMNSEGNTILKTPQNAIFFKTCQQAECPGGCRNGGFCNERRICECPDGFHGPHCEKALCTPRCMNGGLCVTPGFCICPPGFYGVNCDKANCSTTCFNGGTCFYPGKCICPPGLEGEQCEISKCPQPCRNGGKCIGKSKCKCSKGYQGDLCSKPVCEPGCGAHGTCHEPNKCQCQEGWHGRHCNKRYEASLI",

# The next lines start with the binder.
Binder,Kd (mouse Wnt3a [1]),further results
"WIF-1_(WD-EGF-I) (human WIF-1 residues 35-210) (domain or fragment, UniProt Q9Y5W5 35-210, looked up) SLYLWIDAHQARVLIGFEEDILIVSEGKMAPFTHDFRKAQQRMPAIPVNIHSMNFTWQAAGQAEYFYEFLSLRSLDKGIMADPTVNVPLLGTVPHKASVVQVGFPCLGKQDGVAAFEVDVIVMNSEGNTILKTPQNAIFFKTCQQAECPGGCRNGGFCNERRICECPDGFHGPHCE",5.6 µM,Kd (mouse Wnt3a [2]): 9.86 µM; Kd (mouse Wnt3a [3]): 16.8 µM; Kd (mouse Wnt3a [4]): 15.9 µM; Kd (mouse Wnt3a [5]): 16.9 µM
"WIF-1_(WD-EGF-I) Met77Trp (domain or fragment, human, UniProt Q9Y5W5 35-210, looked up) SLYLWIDAHQARVLIGFEEDILIVSEGKMAPFTHDFRKAQQRWPAIPVNIHSMNFTWQAAGQAEYFYEFLSLRSLDKGIMADPTVNVPLLGTVPHKASVVQVGFPCLGKQDGVAAFEVDVIVMNSEGNTILKTPQNAIFFKTCQQAECPGGCRNGGFCNERRICECPDGFHGPHCE",2.86 µM,
"WIF-1ΔC (human WIF-1 residues 35-346) (domain or fragment, UniProt Q9Y5W5 35-346, looked up) SLYLWIDAHQARVLIGFEEDILIVSEGKMAPFTHDFRKAQQRMPAIPVNIHSMNFTWQAAGQAEYFYEFLSLRSLDKGIMADPTVNVPLLGTVPHKASVVQVGFPCLGKQDGVAAFEVDVIVMNSEGNTILKTPQNAIFFKTCQQAECPGGCRNGGFCNERRICECPDGFHGPHCEKALCTPRCMNGGLCVTPGFCICPPGFYGVNCDKANCSTTCFNGGTCFYPGKCICPPGLEGEQCEISKCPQPCRNGGKCIGKSKCKCSKGYQGDLCSKPVCEPGCGAHGTCHEPNKCQCQEGWHGRHCNKRYEASLI",0.0216 µM,
"WIF-1WD (WIF domain of human Wnt inhibitory factor 1, residues 35-178) (domain or fragment, UniProt Q9Y5W5 35-178, looked up) SLYLWIDAHQARVLIGFEEDILIVSEGKMAPFTHDFRKAQQRMPAIPVNIHSMNFTWQAAGQAEYFYEFLSLRSLDKGIMADPTVNVPLLGTVPHKASVVQVGFPCLGKQDGVAAFEVDVIVMNSEGNTILKTPQNAIFFKTCQ",3.4 µM,
"WIF-1_(EGFs I-V) (human WIF-1 residues 178-346) (domain or fragment, UniProt Q9Y5W5 178-346, looked up) QQAECPGGCRNGGFCNERRICECPDGFHGPHCEKALCTPRCMNGGLCVTPGFCICPPGFYGVNCDKANCSTTCFNGGTCFYPGKCICPPGLEGEQCEISKCPQPCRNGGKCIGKSKCKCSKGYQGDLCSKPVCEPGCGAHGTCHEPNKCQCQEGWHGRHCNKRYEASLI",0.9 µM,
